How the values were obtained:
[1] = molecular target: T1, MAGE-A3 peptide on HLA-DPB1*04:01 (human); experiment: cytokine release
T1 peptide: LTQHFVQENYLEY

[2] = molecular target: T2, MAGE-A3 peptide on HLA-DPB1*04:01 (human); experiment: cytokine release
T2 peptide: QHFVQENYLEY

[3] = molecular target: T3, MAGE-A3 peptide on HLA-DPB1*04:02 (human); experiment: cytokine release
T3 peptide: QHFVQENYLEY

[4] = molecular target: T4, MAGE-A3 peptide on HLA-DPB1*04:01 (human); experiment: cytokine release
T4 peptide: TQHFVQENYLEY

[5] = molecular target: T5, MAGE-G1 peptide on HLA-DPB1*04:01 (human); experiment: cytokine release
T5 peptide: KKLITEDFVRQRYLEY

[6] = molecular target: T6, MAGE-B16 peptide on HLA-DPB1*04:01 (human); experiment: cytokine release
T6 peptide: KDFVKEKYLEY

[7] = molecular target: T7, MAGE-B10 peptide on HLA-DPB1*04:01 (human); experiment: cytokine release
T7 peptide: KDLVKENYLEY

[8] = molecular target: T8, MAGE-L2 peptide on HLA-DPB1*04:01 (human); experiment: cytokine release
T8 peptide: KKLITEVFVRQKYLEY

[9] = molecular target: T9, MAGE-B2 peptide on HLA-DPB1*04:01 (human); experiment: cytokine release
T9 peptide: KDLVQEKYLEY

[10] = molecular target: T10, Necdin peptide on HLA-DPB1*04:01 (human); experiment: cytokine release
T10 peptide: EEFVQMNYLKY

[11] = molecular target: T11, MAGE-A12 peptide on HLA-DPB1*04:01 (human); experiment: cytokine release
T11 peptide: KKLLTQDLVQENYLEY

[12] = molecular target: T12, MAGE-A6 peptide on HLA-DPB1*04:01 (human); experiment: cytokine release
T12 peptide: QYFVQENYLEY

[13] = molecular target: T13, MAGE-C1 peptide on HLA-DPB1*04:01 (human); experiment: cytokine release
T13 peptide: KVWVQEHYLEY

[14] = molecular target: T14, MAGE-A3 peptide on HLA-DPB1*04:01 (human); experiment: cytokine release
T14 peptide: KKLLTQHFVQE

[15] = molecular target: T15, MAGE-A8 peptide on HLA-DPB1*04:01 (human); experiment: cytokine release
T15 peptide: QEWVQENYLEY

[16] = molecular target: T16, MAGE-A3 peptide on HLA-DPB1*04:01 (human); experiment: cytokine release
T16 peptide: KKLLTQHFVQEN

[17] = molecular target: T17, MAGE-A3 peptide on HLA-DPB1*04:01 (human); experiment: cytokine release
T17 peptide: LLTQHFVQENYLEY

[18] = molecular target: T18, MAGE-A4/A9 peptide on HLA-DPB1*04:01 (human); experiment: cytokine release
T18 peptide: QDWVQENYLEY

[19] = molecular target: T19, MAGE-A1 peptide on HLA-DPB1*04:01 (human); experiment: cytokine release
T19 peptide: KKLLTQDLVQEKYLEY

[20] = molecular target: T20, MAGE-A2/A12 peptide on HLA-DPB1*04:01 (human); experiment: cytokine release
T20 peptide: QDLVQENYLEY

[21] = molecular target: T21, MAGE-A3 peptide on HLA-DPB1*04:01 (human); experiment: multimer staining
T21 peptide: KKLLTQHFVQENYLEY

[22] = molecular target: T21, MAGE-A3 peptide on HLA-DPB1*04:01; experiment: cytokine release

B1: 6F9 TCR (TCR, V domains shown)
Valpha: AQTVTQSQPEMSVQEAETVTLSCTYDTSESDYYLFWYKQPPSRQMILVIRQEAYKQQNATENRFSVNFQKAAKSFSLKISDSQLGDAAMYFCALRSSGTYKYIFGTGTRLKVLA
Vbeta: GAGVSQSPSNKVTEKGKDVELRCDPISGHTALYWYRQSLGQGLEFLIYFQGNSAPDKSGLPSDRFSAERTGGSVSTLTIQRTQQEDSAVYLCASIRTGPFFSGNTIYFGEGSWLTVV
- binding result [1]: recognises
- binding result [2]: recognises
- binding result [3]: recognises
- binding result [4]: recognises
- binding result [5]: no recognition
- binding result [6]: no recognition
- binding result [7]: no recognition
- binding result [8]: no recognition
- binding result [9]: no recognition
- binding result [10]: no recognition
- binding result [11]: no recognition
- binding result [12]: recognises
- binding result [13]: no recognition
- binding result [14]: no recognition
- binding result [15]: no recognition
- binding result [16]: no recognition
- binding result [17]: recognises
- binding result [18]: no recognition
- binding result [19]: no recognition
- binding result [20]: no recognition
- binding result [21]: recognises

B2: R12C9 TCR (TCR, V domains shown)
Valpha: AQTVTQSQPEMSVQEAETVTLSCTYDTSESDYYLFWYKQPPSRQMILVIRQEAYKQQNATENRFSVNFQKAAKSFSLKISDSQLGDAAMYFCAYTVPSNAGGTSYGKLTFGQGTILTVHP
Vbeta: EPEVTQTPSHQVTQMGQEVILRCVPISNHLYFYWYRQILGQKVEFLVSFYNNEISEKSEIFDDQFSVERPDGSNFTLKIRSTKLEDSAMYFCASSERGQGYGYTFGSGTRLTVV
- binding result [11]: no recognition
- binding result [19]: no recognition
- binding result [22]: recognises
